# Laboratory results taken from patent US20110300138A1 (published 2011).
# Like-named read-outs stand apart in the source and are kept apart here.
# How the values were obtained:
# Assay in all cases: cell-based or functional assay
# [1] = target: wild type TSHR expressed in CHO cells (human) (UniProt P16473)
# [2] = target: TSHR with Phe130 mutated to Ala, expressed in CHO cells (human) (UniProt P16473)
# [3] = target: TSHR with Lys183 mutated to Asp expressed in CHO cells (human) (UniProt P16473)
# [4] = target: TSHR with Tyr82 mutated to Ala expressed in CHO cells (human) (UniProt P16473)
# [5] = target: wild type TSHR expressed in CHO cells (human) (UniProt P16473); remark: listed apart in the source
# [6] = target: wild type TSHR (human TSH receptor) expressed in CHO cells (human) (UniProt P16473)
# [7] = target: TSHR with Glu61 mutated to Ala, expressed in CHO cells (human) (UniProt P16473)
# [8] = target: TSHR with Glu178 mutated to Ala expressed in CHO cells (human) (UniProt P16473)
# [9] = target: TSHR with Glu107 mutated to Ala expressed in CHO cells (human) (UniProt P16473)
# [10] = target: TSHR with Ile60 mutated to Ala, expressed in CHO cells (human) (UniProt P16473)
# [11] = target: TSHR with Ser281 mutated to Ala, expressed in CHO cells (human) (UniProt P16473)
# [12] = target: wild type TSHR expressed in CHO cells (human) (UniProt P16473); remark: listed apart in the source
# [13] = target: TSHR with Phe134 mutated to Ala, expressed in CHO cells (human) (UniProt P16473)
substance,measurement,setting,value
"5B3 (human monoclonal antibody to GAD, negative control for K1-70)",% inhibition of TSH stimulation; 5B3 10 µg/mL,[1],2%
same,% inhibition of TSH stimulation; 5B3 100 µg/mL,[1],0%
same,Cyclic AMP produced; 5B3 10 µg/mL + TSH 3 ng/mL,[1],78.2 pmol/mL
same,Cyclic AMP produced; 5B3 100 µg/mL + TSH 3 ng/mL,[1],86.9 pmol/mL
same,% inhibition of TSH stimulation; 5B3 10 µg/mL,[2],8%
same,% inhibition of TSH stimulation; 5B3 100 µg/mL,[2],6%
same,Cyclic AMP produced; 5B3 10 µg/mL + TSH 3 ng/mL,[2],111 pmol/mL
same,Cyclic AMP produced; 5B3 100 µg/mL + TSH 3 ng/mL,[2],114 pmol/mL
same,Mutated/wild type (%) of cyclic AMP produced; 5B3 10 µg/mL + TSH 3 ng/mL,[2],142%
same,Mutated/wild type (%) of cyclic AMP produced; 5B3 100 µg/mL + TSH 3 ng/mL,[2],131%
same,% inhibition of TSH stimulation; 5B3 10 µg/mL,[3],11%
same,% inhibition of TSH stimulation; 5B3 100 µg/mL,[3],0%
same,Cyclic AMP produced; 5B3 10 µg/mL + TSH 3 ng/mL,[3],105 pmol/mL
same,Cyclic AMP produced; 5B3 100 µg/mL + TSH 3 ng/mL,[3],128 pmol/mL
same,Mutated/wild type (%) of cyclic AMP produced; 5B3 10 µg/mL + TSH 3 ng/mL,[3],112%
same,Mutated/wild type (%) of cyclic AMP produced; 5B3 100 µg/mL + TSH 3 ng/mL,[3],117%
same,% inhibition of TSH stimulation; 5B3 10 µg/mL; Experiment 1,[4],16%
same,% inhibition of TSH stimulation; 5B3 10 µg/mL; Experiment 2,[4],4%
same,% inhibition of TSH stimulation; 5B3 100 µg/mL; Experiment 1,[4],16%
same,% inhibition of TSH stimulation; 5B3 100 µg/mL; Experiment 2,[4],8%
same,Cyclic AMP produced; 5B3 10 µg/mL + TSH 3 ng/mL; Experiment 1,[4],139 pmol/mL
same,Cyclic AMP produced; 5B3 10 µg/mL + TSH 3 ng/mL; Experiment 2,[4],71.9 pmol/mL
same,Cyclic AMP produced; 5B3 100 µg/mL + TSH 3 ng/mL; Experiment 1,[4],139 pmol/mL
same,Cyclic AMP produced; 5B3 100 µg/mL + TSH 3 ng/mL; Experiment 2,[4],68.5 pmol/mL
same,Mutated/wild type (%) of cyclic AMP produced; 5B3 10 µg/mL + TSH 3 ng/mL; Experiment 1,[4],85%
same,Mutated/wild type (%) of cyclic AMP produced; 5B3 10 µg/mL + TSH 3 ng/mL; Experiment 2,[4],96%
same,Mutated/wild type (%) of cyclic AMP produced; 5B3 100 µg/mL + TSH 3 ng/mL; Experiment 1,[4],95%
same,Mutated/wild type (%) of cyclic AMP produced; 5B3 100 µg/mL + TSH 3 ng/mL; Experiment 2,[4],99%
same,% inhibition of TSH stimulation; 5B3 10 µg/mL,[5],0%
same,% inhibition of TSH stimulation; 5B3 10 µg/mL; Exp 1,[5],0%
same,% inhibition of TSH stimulation; 5B3 10 µg/mL; Exp 2,[5],0%
same,% inhibition of TSH stimulation; 5B3 10 µg/mL; Experiment 1,[5],0%
same,% inhibition of TSH stimulation; 5B3 10 µg/mL; Experiment 2,[5],0%
same,% inhibition of TSH stimulation; 5B3 100 µg/mL,[5],0%
same,% inhibition of TSH stimulation; 5B3 100 µg/mL; Exp 1,[5],0%
same,% inhibition of TSH stimulation; 5B3 100 µg/mL; Exp 2,[5],0%
same,% inhibition of TSH stimulation; 5B3 100 µg/mL; Experiment 1,[5],5%
same,% inhibition of TSH stimulation; 5B3 100 µg/mL; Experiment 2,[5],0%
same,Cyclic AMP produced; 5B3 10 µg/mL + TSH 3 ng/mL,[5],85.3 pmol/mL
same,Cyclic AMP produced; 5B3 10 µg/mL + TSH 3 ng/mL; Exp 1,[5],65.7 pmol/mL
same,Cyclic AMP produced; 5B3 10 µg/mL + TSH 3 ng/mL; Exp 2,[5],100 pmol/mL
same,Cyclic AMP produced; 5B3 10 µg/mL + TSH 3 ng/mL; Experiment 1,[5],163 pmol/mL
same,Cyclic AMP produced; 5B3 10 µg/mL + TSH 3 ng/mL; Experiment 2,[5],73.7 pmol/mL
same,Cyclic AMP produced; 5B3 100 µg/mL + TSH 3 ng/mL,[5],81.6 pmol/mL
same,Cyclic AMP produced; 5B3 100 µg/mL + TSH 3 ng/mL; Exp 1,[5],65.5 pmol/mL
same,Cyclic AMP produced; 5B3 100 µg/mL + TSH 3 ng/mL; Exp 2,[5],98.1 pmol/mL
same,Cyclic AMP produced; 5B3 100 µg/mL + TSH 3 ng/mL; Experiment 1,[5],146 pmol/mL
same,Cyclic AMP produced; 5B3 100 µg/mL + TSH 3 ng/mL; Experiment 2,[5],68.9 pmol/mL
same,% inhibition of TSH stimulation; 5B3 10 µg/mL,[5]; record 2,0%
same,% inhibition of TSH stimulation; 5B3 10 µg/mL; Experiment 1,[5]; record 2,4%
same,% inhibition of TSH stimulation; 5B3 10 µg/mL; Experiment 2,[5]; record 2,0%
same,% inhibition of TSH stimulation; 5B3 100 µg/mL,[5]; record 2,0%
same,% inhibition of TSH stimulation; 5B3 100 µg/mL; Experiment 1,[5]; record 2,0%
same,% inhibition of TSH stimulation; 5B3 100 µg/mL; Experiment 2,[5]; record 2,0%
same,Cyclic AMP produced; 5B3 10 µg/mL + TSH 3 ng/mL,[5]; record 2,93.7 pmol/mL
same,Cyclic AMP produced; 5B3 100 µg/mL + TSH 3 ng/mL,[5]; record 2,109 pmol/mL
same,% inhibition of TSH stimulation; 5B3 10 µg/mL,[6],1%
same,% inhibition of TSH stimulation; 5B3 10 µg/mL; Experiment 1,[6],0%
same,% inhibition of TSH stimulation; 5B3 10 µg/mL; Experiment 2,[6],0%
same,% inhibition of TSH stimulation; 5B3 100 µg/mL,[6],0%
same,% inhibition of TSH stimulation; 5B3 100 µg/mL; Experiment 1,[6],2%
same,% inhibition of TSH stimulation; 5B3 100 µg/mL; Experiment 2,[6],0%
same,% inhibition of TSH stimulation; 5B3 10 µg/mL,[7],0%
same,% inhibition of TSH stimulation; 5B3 100 µg/mL,[7],9%
same,Mutated/wild type (%) of cyclic AMP produced; 5B3 10 µg/mL + TSH 3 ng/mL,[7],68%
same,Mutated/wild type (%) of cyclic AMP produced; 5B3 100 µg/mL + TSH 3 ng/mL,[7],55%
same,% inhibition of TSH stimulation; 5B3 10 µg/mL; Exp 1,[8],0%
same,% inhibition of TSH stimulation; 5B3 10 µg/mL; Exp 2,[8],0%
same,% inhibition of TSH stimulation; 5B3 100 µg/mL; Exp 1,[8],0%
same,% inhibition of TSH stimulation; 5B3 100 µg/mL; Exp 2,[8],3%
same,Cyclic AMP produced; 5B3 10 µg/mL + TSH 3 ng/mL; Exp 1,[8],57.6 pmol/mL
same,Cyclic AMP produced; 5B3 10 µg/mL + TSH 3 ng/mL; Exp 2,[8],55 pmol/mL
same,Cyclic AMP produced; 5B3 100 µg/mL + TSH 3 ng/mL; Exp 1,[8],57 pmol/mL
same,Cyclic AMP produced; 5B3 100 µg/mL + TSH 3 ng/mL; Exp 2,[8],45 pmol/mL
same,Mutated/wild type (%) of cyclic AMP produced; 5B3 10 µg/mL + TSH 3 ng/mL; Exp 1,[8],88%
same,Mutated/wild type (%) of cyclic AMP produced; 5B3 10 µg/mL + TSH 3 ng/mL; Exp 2,[8],55%
same,Mutated/wild type (%) of cyclic AMP produced; 5B3 100 µg/mL + TSH 3 ng/mL; Exp 1,[8],87%
same,Mutated/wild type (%) of cyclic AMP produced; 5B3 100 µg/mL + TSH 3 ng/mL; Exp 2,[8],46%
same,% inhibition of TSH stimulation; 5B3 10 µg/mL,[9],15%
same,% inhibition of TSH stimulation; 5B3 100 µg/mL,[9],17%
same,Cyclic AMP produced; 5B3 10 µg/mL + TSH 3 ng/mL,[9],70.9 pmol/mL
same,Cyclic AMP produced; 5B3 100 µg/mL + TSH 3 ng/mL,[9],66.8 pmol/mL
same,Mutated/wild type (%) of cyclic AMP produced; 5B3 10 µg/mL + TSH 3 ng/mL,[9],83%
same,Mutated/wild type (%) of cyclic AMP produced; 5B3 100 µg/mL + TSH 3 ng/mL,[9],82%
same,% inhibition of TSH stimulation; 5B3 10 µg/mL; Experiment 1,[10],0%
same,% inhibition of TSH stimulation; 5B3 10 µg/mL; Experiment 2,[10],17%
same,% inhibition of TSH stimulation; 5B3 100 µg/mL; Experiment 1,[10],14%
same,% inhibition of TSH stimulation; 5B3 100 µg/mL; Experiment 2,[10],0%
same,Mutated/wild type (%) of cyclic AMP produced; 5B3 10 µg/mL + TSH 3 ng/mL; Experiment 1,[10],58%
same,Mutated/wild type (%) of cyclic AMP produced; 5B3 10 µg/mL + TSH 3 ng/mL; Experiment 2,[10],53%
same,Mutated/wild type (%) of cyclic AMP produced; 5B3 100 µg/mL + TSH 3 ng/mL; Experiment 1,[10],50%
same,Mutated/wild type (%) of cyclic AMP produced; 5B3 100 µg/mL + TSH 3 ng/mL; Experiment 2,[10],62%
same,% inhibition of TSH stimulation; 5B3 10 µg/mL; Experiment 1,[11],19%
same,% inhibition of TSH stimulation; 5B3 10 µg/mL; Experiment 2,[11],4%
same,% inhibition of TSH stimulation; 5B3 100 µg/mL; Experiment 1,[11],11%
same,% inhibition of TSH stimulation; 5B3 100 µg/mL; Experiment 2,[11],0%
same,Mutated/wild type (%) of cyclic AMP produced; test sample 5B3 10 µg/mL + TSH (3 ng/mL); Experiment 1,[11],67%
same,Mutated/wild type (%) of cyclic AMP produced; test sample 5B3 10 µg/mL + TSH (3 ng/mL); Experiment 2,[11],80%
same,Mutated/wild type (%) of cyclic AMP produced; test sample 5B3 100 µg/mL + TSH (3 ng/mL); Experiment 1,[11],71%
same,Mutated/wild type (%) of cyclic AMP produced; test sample 5B3 100 µg/mL + TSH (3 ng/mL); Experiment 2,[11],87%
same,% inhibition of TSH stimulation; 5B3 10 µg/mL,[12],0%
same,Cyclic AMP produced; 5B3 10 µg/mL + TSH 3 ng/mL,[12],131 pmol/mL
same,Cyclic AMP produced; 5B3 100 µg/mL + TSH 3 ng/mL,[12],112 pmol/mL
same,% inhibition of TSH stimulation; 5B3 10 µg/mL,[13],9%
same,% inhibition of TSH stimulation; 5B3 100 µg/mL,[13],0%
same,Cyclic AMP produced; 5B3 10 µg/mL + TSH 3 ng/mL,[13],101 pmol/mL
same,Cyclic AMP produced; 5B3 100 µg/mL + TSH 3 ng/mL,[13],116 pmol/mL
same,Mutated/wild type (%) of cyclic AMP produced; 5B3 10 µg/mL + TSH 3 ng/mL,[13],77%
same,Mutated/wild type (%) of cyclic AMP produced; 5B3 100 µg/mL + TSH 3 ng/mL,[13],103%
